Values of other authors as cited in publication PMC3865722.
Read-outs that look alike come from different tables or passages of the source.

Assays:
SRSF1 (Homo sapiens) [1] = biological target: SRSF1 (Homo sapiens) (UniProt Q07955)
SRSF1 (Homo sapiens) [2] = biological target: SRSF1 (Homo sapiens) (UniProt Q07955); remark: listed apart in the source

SRSF1 (Homo sapiens), sequence (Q07955 2-248): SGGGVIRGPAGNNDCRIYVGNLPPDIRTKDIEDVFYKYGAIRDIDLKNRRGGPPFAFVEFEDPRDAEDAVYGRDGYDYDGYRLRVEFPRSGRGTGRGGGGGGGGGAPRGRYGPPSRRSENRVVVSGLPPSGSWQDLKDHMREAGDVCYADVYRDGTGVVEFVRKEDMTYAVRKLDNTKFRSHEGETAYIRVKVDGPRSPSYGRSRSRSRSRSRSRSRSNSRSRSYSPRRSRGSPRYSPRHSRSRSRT
CLK1, sequence (P49759 whole entry): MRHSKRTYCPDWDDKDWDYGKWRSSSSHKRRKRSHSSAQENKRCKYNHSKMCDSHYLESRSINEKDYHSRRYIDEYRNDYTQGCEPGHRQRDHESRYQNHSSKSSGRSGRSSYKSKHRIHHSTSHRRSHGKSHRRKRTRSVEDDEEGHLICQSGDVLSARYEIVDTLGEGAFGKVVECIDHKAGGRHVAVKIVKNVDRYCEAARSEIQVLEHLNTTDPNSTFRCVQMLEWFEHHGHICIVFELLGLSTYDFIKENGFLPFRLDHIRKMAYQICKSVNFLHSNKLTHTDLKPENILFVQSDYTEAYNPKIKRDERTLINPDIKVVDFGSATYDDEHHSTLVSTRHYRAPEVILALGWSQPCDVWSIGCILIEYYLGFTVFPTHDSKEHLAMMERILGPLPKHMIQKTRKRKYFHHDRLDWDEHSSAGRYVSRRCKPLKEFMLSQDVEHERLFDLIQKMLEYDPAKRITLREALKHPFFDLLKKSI

Substance	Kd (SRSF1 (Homo sapiens) [1])	Kd (SRSF1 (Homo sapiens) [2])
CLK1 (from UniProt P49759)	< 100 nM	
SRPK1 (from UniProt Q96SB4)		< 100 nM
